The text below walks through data of doi:10.1101/2024.12.18.629111 (bioRxiv, 2024).

Assay in all cases: pull-down
One test addresses T1, CBP-Upf1-CH-HD (S. cerevisiae, UniProt P30771 54-851).
T1 sequence (looked up): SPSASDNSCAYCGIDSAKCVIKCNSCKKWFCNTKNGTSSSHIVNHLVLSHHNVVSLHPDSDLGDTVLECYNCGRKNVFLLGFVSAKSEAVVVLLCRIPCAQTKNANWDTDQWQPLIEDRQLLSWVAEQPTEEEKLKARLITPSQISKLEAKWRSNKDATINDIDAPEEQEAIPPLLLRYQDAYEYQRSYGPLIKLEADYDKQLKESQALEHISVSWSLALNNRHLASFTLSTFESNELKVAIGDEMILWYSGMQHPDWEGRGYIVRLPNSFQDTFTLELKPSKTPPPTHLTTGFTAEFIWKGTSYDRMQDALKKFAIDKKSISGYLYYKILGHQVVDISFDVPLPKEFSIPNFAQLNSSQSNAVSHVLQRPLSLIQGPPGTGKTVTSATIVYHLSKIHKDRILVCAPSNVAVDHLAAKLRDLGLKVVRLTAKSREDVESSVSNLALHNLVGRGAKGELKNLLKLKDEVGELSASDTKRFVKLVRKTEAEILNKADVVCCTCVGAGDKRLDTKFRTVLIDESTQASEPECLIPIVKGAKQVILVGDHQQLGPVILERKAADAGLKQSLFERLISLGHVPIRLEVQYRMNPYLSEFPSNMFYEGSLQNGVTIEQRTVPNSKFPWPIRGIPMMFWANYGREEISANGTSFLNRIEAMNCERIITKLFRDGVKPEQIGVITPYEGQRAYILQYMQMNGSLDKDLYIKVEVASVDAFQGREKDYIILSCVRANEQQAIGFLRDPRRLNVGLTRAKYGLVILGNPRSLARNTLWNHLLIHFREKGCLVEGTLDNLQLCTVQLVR

For another test, the target named is T2, CBP-Upf1-FL (S. cerevisiae, UniProt P30771 1-971).
T2 sequence (looked up): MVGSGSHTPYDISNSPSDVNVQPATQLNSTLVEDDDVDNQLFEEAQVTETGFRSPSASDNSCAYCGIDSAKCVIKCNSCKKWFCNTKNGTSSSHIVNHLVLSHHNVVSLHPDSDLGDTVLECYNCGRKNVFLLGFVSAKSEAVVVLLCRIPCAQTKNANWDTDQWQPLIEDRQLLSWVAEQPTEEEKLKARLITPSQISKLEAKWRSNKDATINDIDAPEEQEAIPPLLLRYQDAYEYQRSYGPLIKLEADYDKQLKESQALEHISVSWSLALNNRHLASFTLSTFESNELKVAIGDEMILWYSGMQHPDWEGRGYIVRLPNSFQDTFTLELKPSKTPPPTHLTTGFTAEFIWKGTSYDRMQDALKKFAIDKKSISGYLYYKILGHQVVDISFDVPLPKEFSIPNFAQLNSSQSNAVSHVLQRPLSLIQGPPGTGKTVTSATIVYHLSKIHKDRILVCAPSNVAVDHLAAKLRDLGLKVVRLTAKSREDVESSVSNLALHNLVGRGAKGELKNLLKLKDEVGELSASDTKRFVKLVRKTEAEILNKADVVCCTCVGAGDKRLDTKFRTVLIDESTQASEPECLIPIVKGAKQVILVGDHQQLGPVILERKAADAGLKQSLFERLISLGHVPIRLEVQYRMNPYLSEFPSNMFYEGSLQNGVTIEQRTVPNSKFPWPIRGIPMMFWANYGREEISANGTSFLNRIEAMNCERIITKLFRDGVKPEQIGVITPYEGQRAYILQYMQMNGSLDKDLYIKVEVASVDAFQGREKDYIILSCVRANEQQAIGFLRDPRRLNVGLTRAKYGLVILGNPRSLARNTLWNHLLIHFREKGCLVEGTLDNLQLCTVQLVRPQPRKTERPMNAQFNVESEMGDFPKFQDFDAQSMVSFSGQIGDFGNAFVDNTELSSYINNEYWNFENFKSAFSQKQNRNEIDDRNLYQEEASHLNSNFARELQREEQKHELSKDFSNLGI

A further test concerns the target T3, CBP-Upf1-HD (S. cerevisiae, UniProt P30771 221-851).
T3 sequence (looked up): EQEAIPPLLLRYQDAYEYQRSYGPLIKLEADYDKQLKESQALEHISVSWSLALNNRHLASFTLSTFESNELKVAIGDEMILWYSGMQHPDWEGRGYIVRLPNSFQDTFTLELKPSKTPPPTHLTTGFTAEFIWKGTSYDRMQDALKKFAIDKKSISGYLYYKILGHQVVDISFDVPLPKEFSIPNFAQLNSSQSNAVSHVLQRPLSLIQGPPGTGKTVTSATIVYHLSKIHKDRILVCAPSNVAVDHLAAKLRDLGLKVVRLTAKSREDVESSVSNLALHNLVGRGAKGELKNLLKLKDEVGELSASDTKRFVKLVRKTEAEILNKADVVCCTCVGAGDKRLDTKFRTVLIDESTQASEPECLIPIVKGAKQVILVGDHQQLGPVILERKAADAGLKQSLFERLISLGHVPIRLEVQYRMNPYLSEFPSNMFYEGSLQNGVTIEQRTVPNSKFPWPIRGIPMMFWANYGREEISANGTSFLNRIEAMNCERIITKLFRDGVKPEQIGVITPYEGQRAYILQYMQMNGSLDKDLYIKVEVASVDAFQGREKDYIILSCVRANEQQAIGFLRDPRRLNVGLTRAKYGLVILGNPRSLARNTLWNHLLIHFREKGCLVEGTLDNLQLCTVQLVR

The next test deals with T4, CBP-Upf1-HD-Ct (S. cerevisiae, UniProt P30771 221-971).
T4 sequence (looked up): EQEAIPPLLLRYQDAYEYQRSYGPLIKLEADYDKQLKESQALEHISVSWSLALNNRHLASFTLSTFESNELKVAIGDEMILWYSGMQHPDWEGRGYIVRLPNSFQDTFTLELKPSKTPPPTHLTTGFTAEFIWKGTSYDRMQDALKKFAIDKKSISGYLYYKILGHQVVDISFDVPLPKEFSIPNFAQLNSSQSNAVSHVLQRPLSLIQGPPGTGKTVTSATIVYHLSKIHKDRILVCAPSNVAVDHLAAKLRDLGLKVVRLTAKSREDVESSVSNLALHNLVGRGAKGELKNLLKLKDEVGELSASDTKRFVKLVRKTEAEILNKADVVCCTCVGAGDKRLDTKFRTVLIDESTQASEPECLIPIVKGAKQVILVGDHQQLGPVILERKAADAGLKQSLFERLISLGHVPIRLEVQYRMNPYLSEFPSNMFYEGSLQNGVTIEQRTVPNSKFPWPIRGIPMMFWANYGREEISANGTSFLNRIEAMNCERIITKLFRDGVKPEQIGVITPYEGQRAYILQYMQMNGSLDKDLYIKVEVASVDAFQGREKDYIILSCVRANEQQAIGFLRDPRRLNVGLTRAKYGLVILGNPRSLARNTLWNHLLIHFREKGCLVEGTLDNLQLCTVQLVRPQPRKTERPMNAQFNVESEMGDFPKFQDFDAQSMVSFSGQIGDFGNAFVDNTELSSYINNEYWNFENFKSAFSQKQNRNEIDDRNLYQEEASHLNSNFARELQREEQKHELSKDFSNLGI

B1: GST-Dcp2-UBD (domain or fragment, S. cerevisiae, UniProt P53550 434-720, looked up)
chain: GYSSSSPGQLLDILNSKKPDSNVQSSKKPKLKILQRGTDLNSIKQNNNDETAHSNSQALLDLLKKPTSSQKIHASKPDTSFLPNDSVSGIQDAEYEDFESSSDEEVETARDERNSLNVDIGVNVMPSEKDSRRSQKEKPRNDASKTNLNASAESNSVEWGPGKSSPSTQSKQNSSVGMQNKYRQEIHIGDSDAYEVFESSSDEEDGKKLEELEQTQDNSKLISQDILKENNFQDGEVPHRDMPTESNKSINETVGLSSTTNTVKKVPKVKILKRGETFASLANDKKA
For the molecule B1, the binding result with CBP-Upf1-CH-HD and with CBP-Upf1-FL was “binds” each time.

B2: GST-Ebs1 (aa 1-591) (domain or fragment, S. cerevisiae, UniProt Q03466 1-591, looked up)
chain: MEPSNTQKEDLPTAFNGIKSQLNSILKSNQLFQDYALLNGFLAFVHSKLNAAILTSIESQCGKSFAADLDSFDQSSISSILDFSWESVHYPIFKWFQMWRNYILFEKENKKQQTKFIDFRKMNSKMLKFFKTVQNFYVNVINTVYKKYDISVLLPKRIIQDLKLSDIENTTNVGDILAVKTFNSSSPLAHLIPTLFHRCLLFLGTAYRYKTLLEEISNKYSISNFKKSLDFFRLASLVLPSAGETYSQAGAIFLQTGNLGIAVFNFVKGMMTKMPSPVSIKNFGALMVDNKSSLNRSLHTTIMNTYLQESKGPRTPAKEILEFYFLGLFGSVWSPTSWRDDTKPNQLNNGIKLRHLENALYETMSARYLNNIKTIFHNLIITIGGFHLLLKRRSDVSAKTLKDLRSNELDYLNFAFKYIAHILNDIVKESWSENPEVSEILGMVRIINCWIKANPMVLQYSQSNLEFVNALAYLINDIVKKKPSPSFSITEHIPKRTYWFEEDLMVKGLSFVNFQLSDFDDYEKILEMDHSLDRLIGNPPLCDKLSASSEMLLRLQAVVNISSQLLQNNNCGVEWSDNKSRYIFNKKIGFK
B2: in the test with CBP-Upf1-FL, the binding result is on record as “binds”.

B3: HisSUMO-tagged Ebs1 (aa 1-591) (domain or fragment, S. cerevisiae, UniProt Q03466 1-591, looked up)
chain: MEPSNTQKEDLPTAFNGIKSQLNSILKSNQLFQDYALLNGFLAFVHSKLNAAILTSIESQCGKSFAADLDSFDQSSISSILDFSWESVHYPIFKWFQMWRNYILFEKENKKQQTKFIDFRKMNSKMLKFFKTVQNFYVNVINTVYKKYDISVLLPKRIIQDLKLSDIENTTNVGDILAVKTFNSSSPLAHLIPTLFHRCLLFLGTAYRYKTLLEEISNKYSISNFKKSLDFFRLASLVLPSAGETYSQAGAIFLQTGNLGIAVFNFVKGMMTKMPSPVSIKNFGALMVDNKSSLNRSLHTTIMNTYLQESKGPRTPAKEILEFYFLGLFGSVWSPTSWRDDTKPNQLNNGIKLRHLENALYETMSARYLNNIKTIFHNLIITIGGFHLLLKRRSDVSAKTLKDLRSNELDYLNFAFKYIAHILNDIVKESWSENPEVSEILGMVRIINCWIKANPMVLQYSQSNLEFVNALAYLINDIVKKKPSPSFSITEHIPKRTYWFEEDLMVKGLSFVNFQLSDFDDYEKILEMDHSLDRLIGNPPLCDKLSASSEMLLRLQAVVNISSQLLQNNNCGVEWSDNKSRYIFNKKIGFK
As to B3, the binding result with CBP-Upf1-FL was “binds”.

B4: TS-Nmd4-His (natural protein, S. cerevisiae, UniProt Q12129 1-218, looked up)
chain: MTQYNFIIDASAFEKGLGNIKRWCSDCTEAVTLNFYIPTFTLNELDFLQQRRKSFAARESLKFIDRLDDSKFANLKVFIEFPEVLDIILWSDVMEHNDSSGKINIAKLPKRLKNLLKSCIYKCYLEGNEGLHWFLISEDPQIREMAMQCNIPSCSIVDVDSILSKDMNDKSFRESEKFNNMMLKNGTKEESENGREIIRTNFNKTVYASRGTGELWSP
Consider B4, for which the binding result with CBP-Upf1-CH-HD, with CBP-Upf1-HD, in the test with CBP-Upf1-HD-Ct and in the test with CBP-Upf1-FL was “binds” throughout.

B5: GST-Dcp2-UBD1 (domain or fragment, S. cerevisiae, UniProt P53550 434-508, looked up)
chain: GYSSSSPGQLLDILNSKKPDSNVQSSKKPKLKILQRGTDLNSIKQNNNDETAHSNSQALLDLLKKPTSSQKIHAS
Take B5: the binding result with CBP-Upf1-CH-HD and in the test with CBP-Upf1-FL was “binds” each time.
